From PMC4436829
Like-named read-outs stand apart in the source and are kept apart here.

What was measured:
[1] = target: S15D NDC80 "Bonsai"-GFP complex; test: TIRF-based MT-binding assay
[2] = target: Taxol-stabilized microtubules (polymerized cow brain tubulin) (cow) (UniProt Q2HJ86); test: TIRF-based MT-binding assay
[3] = target: S15D NDC80 "Bonsai"-GFP complex; test: TIRF-based MT-binding assay; remark: listed apart in the source
[4] = target: S8,15,44,55D NDC80 "Bonsai"-GFP complex; test: FRAP
[5] = target: Taxol-stabilized microtubules (polymerized cow brain tubulin) (cow) (UniProt Q2HJ86); test: FRAP
[6] = target: S8,15,44,55D NDC80 "Bonsai"-GFP complex; test: TIRF-based MT-binding assay
[7] = target: Taxol-stabilized microtubules (polymerized cow brain tubulin) (cow) (UniProt Q2HJ86); test: single-molecule TIRF microscopy
[8] = target: noD NDC80 "Bonsai"-GFP complex (wild-type Hec1 tail); test: FRAP
[9] = target: noD NDC80 "Bonsai"-GFP complex (wild-type Hec1 tail); test: TIRF-based MT-binding assay

UniProt Q2HJ86, sequence (Q2HJ86 8-447, chain 1 of 2): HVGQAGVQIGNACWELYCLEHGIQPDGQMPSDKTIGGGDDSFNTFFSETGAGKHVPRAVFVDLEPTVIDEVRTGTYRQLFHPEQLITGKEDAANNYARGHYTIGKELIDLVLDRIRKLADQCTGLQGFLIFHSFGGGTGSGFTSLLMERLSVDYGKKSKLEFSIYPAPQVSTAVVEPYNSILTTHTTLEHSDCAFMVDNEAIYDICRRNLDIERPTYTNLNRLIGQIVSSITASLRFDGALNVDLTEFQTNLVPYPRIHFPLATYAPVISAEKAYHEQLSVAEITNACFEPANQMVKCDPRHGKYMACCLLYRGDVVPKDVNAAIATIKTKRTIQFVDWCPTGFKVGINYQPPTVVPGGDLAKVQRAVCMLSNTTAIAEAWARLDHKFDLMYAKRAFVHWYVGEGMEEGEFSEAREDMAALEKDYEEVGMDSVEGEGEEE
UniProt Q2HJ86, sequence (Q6B856 1-439, chain 2 of 2, further chain): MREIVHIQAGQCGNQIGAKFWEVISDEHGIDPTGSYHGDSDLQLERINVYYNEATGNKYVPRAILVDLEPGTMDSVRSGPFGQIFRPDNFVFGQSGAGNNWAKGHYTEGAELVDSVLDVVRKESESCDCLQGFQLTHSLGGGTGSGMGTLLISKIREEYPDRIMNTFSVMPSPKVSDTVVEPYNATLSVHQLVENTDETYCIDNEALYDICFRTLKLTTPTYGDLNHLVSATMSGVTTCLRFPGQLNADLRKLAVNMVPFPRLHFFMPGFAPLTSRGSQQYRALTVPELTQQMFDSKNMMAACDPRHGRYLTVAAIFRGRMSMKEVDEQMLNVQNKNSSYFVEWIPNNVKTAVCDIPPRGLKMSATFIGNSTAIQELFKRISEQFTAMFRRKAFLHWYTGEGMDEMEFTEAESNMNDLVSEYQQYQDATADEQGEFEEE

For S15D NDC80 "Bonsai"-GFP complex, the cooperativity parameter (ω) [1] was 3, the Kd [2] was 710 nM and the stoichiometry N (molecules per tubulin dimer) [2] was 1.9. The cooperativity parameter (ω) [3] was 2.

In the case of S8,15,44,55D NDC80 "Bonsai"-GFP complex, the cooperativity parameter (ω) [4] is reported as 2.4, the FRAP recovery time [5] is reported as 0.084 s and the cooperativity parameter (ω) [6] is reported as 2.6. It also gave a Kd [2] of 1920 nM and a stoichiometry N (molecules per tubulin dimer) [2] of 1.9.

“noD NDC80 "Bonsai"-GFP complex (wild-type Hec1 tail)” showed a Kd [7] of 640 nM, a residency time (τ = 1/koff) [7] of 417 ms and a cooperativity parameter (ω) [8] of 2. It also gave an FRAP recovery time [5] of 0.29 s, a cooperativity parameter (ω) [9] of 3.33 and a Kd [2] of 530 nM. It also gave a stoichiometry N (molecules per tubulin dimer) [2] of 1.9.
